Measured values reported in patent US20250027068A1 (published 2025).

Biological target: pooled human IgG (human)
Assay: cell-based or functional assay
Further: test concentration or dose not given here.

| Binder | Enzyme Activity Endpoint Assay (purified): Fab′2 [ng/µL] | Enzyme Activity Endpoint Assay (purified): Fc [ng/µL] | Enzyme Activity Endpoint Assay (purified): IgG [ng/µL] | Enzyme Activity Endpoint Assay (purified): scIgG [ng/µL] |
| --- | --- | --- | --- | --- |
| PRT-206 (enzyme) MEVVEVWPYGQNPNGKTEILSQTEDSESLQRLRDIEDFQAEKKKENVVYTKWLDGVTVKDHDFRKIVDGNIAYYATPLLNGRGFYDINKDFNRDSDKCAAAVAANMFHYWLDINRDNVDRFLRQNPEKHGIIELPDGQLKLSDFLNTYESDDGYRDKSKLFDFISNNFNGPVWTDKLLDNYINGYGYNYKYGRTIEDPTKNTSKINFFKEVFNEKILTDNHSIRDQNEFSDLLSEALYTGKAIGLSYGPAGLRHSLGHIISVWGADLDADGNVVAIYVTDSDDKKLTIGDERVGLKRYKISYDDEGRARLTAYEEKDNTGGQIRGLYTLDTGKQAWADYFDKTEQTGTDQAEQLEHHHHHH | 570 | 0 | 2130 | 0 |
| PRT-196 (enzyme) MEVVEVWPYGQNPNGKTEILSQTEDSESLQRLRDIEDFQAEKKMQNVVYTKWLDGVDVKDHDFRKIVDGNIAYYATPLLNGRGFYDINKDFNRDSDKCAAAVAANMFHYWLDINRDNVDRFLRQNPEKHGIIELPDGQLKLSDFLNTYESDHGYRDKSKLFDFISNNFNGPVWTDKLLDNYINGYAYNYKYGRTIEDPTKNTSKINFFKEVFNEKILTNNHSIRNQNEFSVLLSEALYTGKAIGLSYGPAGLRHSLGHIISVWGADLDADGNVVAIYVTDSDDKKLTIGDERVGLKRYKISTDDENRLRLTAYEETHNTGGQIRGLWTLDTGKYAWADYFDKTEQTGTDQAEQLEHHHHHH | 152 | 498 | 707 | 504 |
| PRT-202 (enzyme) MEVVEVWPYGQNPNGKTEILSQTEDSESLQRLRDIEDFQAEKKKQNVVYTKWLDGVDVKDHDFRKIVDGNIAYYATPLLNGRGFYDINKDFNRDSDKCAAAVAANMFHYWLDINRDNVDRFLRQNPEKHGIIELPDGQLKLSDFLNTYESDYGYRDKSKLFDFISNNFNGPVWTDKLLDNYINGYAYNYKYGRTIEDPTKNTSKINFFKKVFNEKILTNIHSIRNQNEFSDLLSEALYTGKAIGLSYGPAGLRHSLGHIISVWGADLDADGNVVAIYVTDSDDKKLTIGDERVGLKRYKISTDDEGRLRLTAYEETDNTGGEIRGLYTLDTGKQAWADYFDKTEQTGTDQAEQLEHHHHHH | 25 | 402 | 1130 | 553 |
| PRT-198 (enzyme) MEVVEVWPYGQNPNGKTEILSQTEDSESLQRLRDIEDFQAEKKKQGVVYTKWLDGVDVKDHDFRKIVDGNIAYYATPLLNGRGFYDINKDFNRDSDKCAAAVAANMFHYWLDINRDNVDRFLRQNPEKHGIIELPDGQLKLSDFLNTYESDHGYRDKSKLFDFISNNFNGPVWTDKLLDNYINGYAYNYKYGRTIEDPTKNTSKINFFKEVFNEKILTNNHSIRNQNEFSDLLSEALYTGKAIGLSYGPAGLRHSLGHIISVWGADLDADGNVVAIYVTDSDDKKLTIGDERVGLKRYKISTDDENRLRLTAYEETHNTGGQIRGLYTLDTGKQAWADYFDKTEQTGTDQAEQLEHHHHHH | 621 | 0 | 2320 | 0 |
| PRT-197 (enzyme) MEVVEVWPYGQNPNGKTEILSQTEDSESLQRLRDIEDFQAEKKMQNVVYTKWLDGVDVKDHDFRKIVDGNIAYYATPLLNGRGFYDINKDFNRDSDKCAAAVAANMFHYWLDINRDNVDRFLRQNPEKHGIIELPDGQLKLSDFLNTYESDHGYRDKSKLFDFISNNFNGPVWTDKLLDNYINGYAYNYKYGRTIEDPTKNTSKINFFKEVFNEKILTNNHSIRNQNEFSDLLSEALYTGKAIGLSYGPAGLRHSLGHIISVWGADLDADGNVVAIYVTDSDDKKLTIGDERVGLKRYKISTDDENRARLTAYEETDNTGGQIRGLYTLDTGKQAWADYFDKTEQTGTDQAEQLEHHHHHH | 0 | 179 | 1800 | 121 |
| PRT-200 (enzyme) MEVVEVWPYGQNPNGKTEILSQTEDSESLQRLRDIEDFQAEKKMQNVVYTKWLDGVDVKDHDFRKIVDGNIAYYATPLLNGRGFYDINKDFNRDSDKCAAAVAANMFHYWLDINRDNVDRFLRQNPEKHGIIELPDGQLKLSDFLNTYESDHGYRDKSKLFDFISNNFNGPVWTDKLLDNYINGYAYNYKYGRTIEDPTKNTSKINFFKEVFNEKILTNNHSIRNQNEFSDLLSEALYTGKAIGLSYGPAGLRHSLGHIISVWGADLDADGNVVAIYVTDSDDKKLTIGDERVGLKRYKISTDDENRARLTAYEETDNTGGQIRGLWTLDTGKQAWADYFDKTEQTGTDQAEQLEHHHHHH | 0 | 0 | 2510 | 0 |
| PRT-201 (enzyme) MEVVEVWPYGQNPNGKTEILSQTEDSESLQRLRDIEDFQAEKKKQNVVYTKWLDGVDVKDHDFRKIKDGNIEYYATPLLNGRGFYDINKDFNRDSDKCAAAVAANMFHYWLDRNRDNVDRFLRQNPEKHGIIELPDGQLKLSDFLNTYESDDGYRDKSKLFDFISNNFNGPVWTDKLLDNYINGYAYNYKYGRTIEDPTKNTSKINFFKEVFNEKILTNNHSIRNQNEFSVLLSEALYTGKAIGLSYGPAGLRHSLGHIISVWGADLDADGNVVAIYVTDSDDKKLTIGDERVGLKRYKISTDDEGRARLTAYEETHNTGGQIRGLYTLDTGKQAWADYFDKTEQTGTDQAEQLEHHHHHH | 0 | 0 | 2720 | 0 |
| PRT-203 (enzyme) MEVVEVWPYGQNPNGKTEILSQTEDSESLQRLRDIEDFQAEKKKQNVVYTKWLDGVDVKDHDFRKIKDGNIEYYATPLLNGRGFYDINKDFNRDSDKCAAAVAANMFHYWLDRNRDNVDRFLRQNPEKHGIIELPDGQLKLSDFLNTYESDDGYRDKSKLFDFISNNFNGPVWTDKLLDNYINGYAYNYKYGRTIEDPTKNTSKINFFKEVFNEKILTNNHSIRNQNEFSVLLSEALYTGKAIGLSYGPAGLRHSLGHIISVWGADLDADGNVVAIYVTDSDDKKLTIGDERVGLKRYKISTDDEGRARLTAYEETHNTGGQIRGLWTLDTGKQAWADYFDKTEQTGTDQAEQLEHHHHHH | 0 | 0 | 2130 | 0 |
| PRT-199 (enzyme) MEVVEVWPYGQNPNGKTEILSQTEDSESLQRLRDIEDFQAEKKKQNVVYTKWLDGVDVKDHDFRKIVDGNIAYYATPLLNGRGFYDINKDFNRDSDKCAAAVAANMFHYWLDRNRDNVDRFLRQNPEKHGIIELPDGQLKLSDFLNTYESDDGYRDKSKLFDFISNNFNGPVWTDKLLDNYINGYAYNYKYGRTIEDPTKNTSKINFFKEVFNEKILTNNHSIRNQNEFSVLLSEALYTGKAIGLSYGPAGLRHSLGHIISVWGADLDADGNVVAIYVTDSDDKKLTIGDERVGLKRYKISTDDEGRLRLTAYEETHNTGGQIRGLWTLDTGKQAWADYFDKTEQTGTDQAEQLEHHHHHH | 95 | 473 | 797 | 544 |
| PRT-204 (enzyme) MEVVEVWPYGQNPNGKTEILSQTEDSESLQRLRDIEDFQAEKKMQNVVYTKWLDGVTVKDHDFRKIVDGNIAYYATPLLNGRGFYDINKDFNRDSDKCAAAVAANMFHYWLDRNRDNVDRFLSQNPEKHGIIELPDGQLKLSDFLNTYESDNGYRDKSKLFDFISNNFNGPVWTDKLLDNYINGYAYNYKYGRTIEDPTKNTSKINFFKEVFNEKILTNIHSIRNQNEFSDLLSEALYTGKAIGLSYGPAGLRHSLGHIISVWGADLDADGNVVAIYVTDSDDKKLTIGDERVGLKRYKISTDDEGRARLTAYEETDNTGGQIRGLETLDTGKYAWADYFDKTEQTGTDQAEQLEHHHHHH | 0 | 0 | 2260 | 0 |
| PRT-205 (enzyme) MEVVEVWPYGQNPNGKTEILSQTEDSESLQRLRDIEDFQAEKKKEGVVYTKWLDGVDVDDHDFRKIVDGNIAYYATPLLNGRGFYDINKDFNRDSDKCAAAVAANMFHYWLDRNRDNVDRFLKQNPEKHGIIELPDGQLKLSDFLNTYESDNGYRDKSKLFDFISNNFNGPVWTDKLLDNYINGYAYNYKYGRTIEDPTKNTSKINFFKEVFNEKILTNNHSIRNYNTFSDLLSEALYTGKAIGLSYGPAGLRHSLGHIISVWGADLDADGNVVAIYVTDSDDKKLTIGDERVGLKRYKVSSDDENRLRLTAYEETHNTGGQIRGIYTLDTGKQAWADYFDKTEQTGTDQAEQLEHHHHHH | 127 | 216 | 1090 | 278 |
| PRT-194 (enzyme) MANQEIRYSEVTPYHVTSVWTKGVTPPDHDFANFTQGEDVFHAPYVANQGWYDITKTFNGKDDLLCGAATAGNMLHWWFDQNKDQIKRYLEEHPEKQKINFNGEQMFDVKEAIDTKNHQLDSKLFEYFKEKAFPYLSTKHLGVFPDHVIDMFINGYRLSLTNHGPTPVKEGSKDPRGGIFDAVFTRGDQSKLLTSRHDFKEKNLKEISDLIKKELTEGKALGLSHTYANVRHSINHVINLWGADFDSNGNLKAIYVTDSDDKKLTISNASIGMKKYFVGVNSAGKVAISAKEIKEDNIGAQVLGLFTLSTGQDSWNQTN | 0 | 12 | 301 | 0 |
| PRT-195 (enzyme) MANQEIRYSEVTPYHVTSVWTKGVTPPDHDFRKIVDGEDVFHAPYVANQGWYDITKTFNGKDDLLCGAATAGNMLHWWFDQNKDQIKRYLEEHPEKQKINFNGEQMFDVKEAIDTKNHQLDSKLFEYFKEKAFPYLSTKHLGVFPDHVIDMFINGYRLSLTNHGPTPVKEGSKDPRGGIFDAVFTRGDQSKLLTSRHDFKEKNLKEISDLIKKELTEGKALGLSHTYANVRHSINHVINLWGADFDSNGNLKAIYVTDSDDKKLTIGDERIGMKKYFVGVNSAGKVAISAKEIKEDNIGAQVLGLFTLSTGQDSWNQTN | 0 | 30 | 829 | 15 |
